Data taken from patent US11504441B2, “Radiolabeled compounds targeting the prostate-specific membrane antigen” (PROVINCIAL HEALTH SERVICES AUTHORITY, priority 2019, dated 2022).

Assays:
in vivo [1] = experiment: in vivo; parameters: species or system mice; details: male, NODSCID 1L2RγKO, mouse, iv, total radioactivity
in vivo [2] = details: male, NODSCID 1L2RγKO, mouse, iv, total radioactivity, kidney uptake
Method: (§1) LNCaP cell line was obtained from ATCC (LNCaP clone FGC, CRL-1740). […] Cells were cultured in PRM I 1640 medium supplemented with 10% FBS, penicillin (100 U/mL) and streptomycin (100 μg/mL) at 37° C. in a humidified incubator containing 5% CO2. Cells grown to 80-90% confluence were then washed with sterile phosphate-buffered saline (1× PBS pH 7.4) and collected by trypsinization. The collected cells concentration was counted with a Hausser Scientific (Horsham, Pa.) Hemacytometer.
(§2) Imaging and biodistribution experiments were performed using NODSCID 1 L2RγKO male mice. Mice were anesthetized by inhalation with 2% isoflurane in oxygen, and implanted subcutaneously with 1×10^7 LNCaP cells behind left shoulder. Mice were imaged or used in biodistribution studies when the tumor grew up to reach 5-8 mm in diameter during 5-6 weeks.
(§3) PET imaging experiments were conducted using Siemens Inveon micro PET/CT scanner. Each tumor bearing mouse was injected 6-8 MBq of Ga-68 labeled tracer through the tail vein under anesthesia (2% isoflurane in oxygen). The mice were allowed to recover and roam freely in their cage. After 50 min, the mice were sedated again with 2% isoflurane in oxygen inhalation and positioned in the scanner. A 10-min CT scan was conducted first for localization and attenuation correction after segmentation for reconstructing the PET images. Then, a 10-min static PET imaging was performed to determined uptake in tumor and other organs. The mice were kept warm by a heating pad during acquisition. For biodistribution studies, the mice were injected with the radiotracer as described above. The mice was anesthetized with 2% isoflurane inhalation, and euthanized by CO2 inhalation. Blood was withdrawn immediately from the heart, and the organs/tissues of interest were collected. The collected organs/tissues were weighed and counted using a Perkin Elmer (Waltham, Mass.) Wizard2 2480 gamma counter. The uptake in each organ/tissue was normalized to the injected dose using a standard curve, and expressed as the percentage of the injected dose per gram of tissue (% ID/g).
(§4) LNCaP cell line was obtained from ATCC (LNCaP clone FGC, CRL-1740). […] Cells were cultured in PRM I 1640 medium supplemented with 10% FBS, penicillin (100 U/mL) and streptomycin (100 μg/mL) at 37° C. in a humidified incubator containing 5% CO2. Cells grown to 80-90% confluence were then washed with sterile phosphate-buffered saline (1× PBS pH 7.4), and collected by trypsinization. The collected cell concentration was counted with a Hausser Scientific (Horsham, Pa.) Hemacytometer.
(§5) Imaging and biodistribution experiments were performed using NODSCID 1L2RγKO male mice. Mice were anesthetized by inhalation with 2% isoflurane in oxygen, and implanted subcutaneously with 1×10^7 LNCaP cells behind left shoulder. Mice were imaged or used in biodistribution studies when the tumor grew up to reach 5-8 mm in diameter during 5-6 weeks.
(§6) PET imaging experiments were conducted using Siemens Inveon micro PET/CT scanner. Each tumor bearing mouse was injected 6-8 MBq of Ga-68 or F-18 labeled tracer through the tail vein under anesthesia (2% isoflurane in oxygen). The mice were allowed to recover and roam freely in their cage. After 50 min, the mice were sedated again with 2% isoflurane in oxygen inhalation and positioned in the scanner. A 10-min CT scan was conducted first for localization and attenuation correction after segmentation for reconstructing the PET images. Then, a 10-min static PET imaging was performed to determined uptake in tumor and other organs.
(§7) For biodistribution studies, the mice were injected with the radiotracer as described above.

[3] = tested on: PSMA-expressing LNCaP cancer xenografts; details: mouse, in vivo
Method: as §1, §2, §3, §4, §5, §6, §7

`COc1ccc(CCCC(=O)NCC(=O)N[C@@H](CCCCNC(=O)CN2CCN(CC(=O)O)CCN(CC(=O)O)CCN(CC(=O)O)CC2)C(=O)NC[C@H]2CC[C@H](C(=O)N[C@@H](Cc3c4ccccc4cc4ccccc34)C(=O)NCCCC[C@H](NC(=O)N[C@@H](CSCC(=O)O)C(=O)O)C(=O)O)CC2)cc1` [177Lu-HTK04048, metal not drawn] showed a tissue uptake at 1 h (in vivo [1]; Adrenal glands uptake) of 3.95 ± 0.34 %ID/g, a tissue uptake at 4 h (in vivo [1]; Adrenal glands uptake) of 2.1 ± 0.22 %ID/g and a tissue uptake at 24 h (in vivo [1]; Adrenal glands uptake) of 0.49 ± 0.04 %ID/g. The tissue uptake at 72 h (in vivo [1]; Adrenal glands uptake) was 0.34 ± 0.03 %ID/g, the tissue uptake at 120 h (in vivo [1]; Adrenal glands uptake) was 0.37 ± 0.09 %ID/g and the tissue uptake at 1 h (in vivo [1]; Blood uptake) was 17.7 ± 2.05 %ID/g. For the same compound, the tissue uptake at 4 h (in vivo [1]; Blood uptake) was 12.3 ± 1.56 %ID/g, the tissue uptake at 24 h (in vivo [1]; Blood uptake) was 0.68 ± 0.11 %ID/g and the tissue uptake at 72 h (in vivo [1]; Blood uptake) was 0.12 ± 0.01 %ID/g. For the same compound, the tissue uptake at 120 h (in vivo [1]; Blood uptake) was 0.05 ± 0.02 %ID/g, the tissue uptake at 1 h (in vivo [1]; Bone uptake) was 1.04 ± 0.2 %ID/g and the tissue uptake at 4 h (in vivo [1]; Bone uptake) was 0.74 ± 0.09 %ID/g. The tissue uptake at 24 h (in vivo [1]; Bone uptake) was 0.11 ± 0.02 %ID/g, the tissue uptake at 72 h (in vivo [1]; Bone uptake) was 0.07 ± 0.01 %ID/g and the tissue uptake at 120 h (in vivo [1]; Bone uptake) was 0.07 ± 0.01 %ID/g. The tissue uptake at 1 h (in vivo [1]; Brain uptake) was 0.31 ± 0.02 %ID/g, the tissue uptake at 4 h (in vivo [1]; Brain uptake) was 0.18 ± 0.02 %ID/g and the tissue uptake at 24 h (in vivo [1]; Brain uptake) was 0.03 %ID/g. The tissue uptake at 72 h (in vivo [1]; Brain uptake) was 0.01 %ID/g, the tissue uptake at 120 h (in vivo [1]; Brain uptake) was 0.01 %ID/g and the tissue uptake at 1 h (in vivo [1]; Fat uptake) was 1.32 ± 0.17 %ID/g. It also gave a tissue uptake at 4 h (in vivo [1]; Fat uptake) of 1 ± 0.13 %ID/g, a tissue uptake at 24 h (in vivo [1]; Fat uptake) of 0.15 ± 0.06 %ID/g and a tissue uptake at 72 h (in vivo [1]; Fat uptake) of 0.08 ± 0.03 %ID/g. For the same compound, the tissue uptake at 120 h (in vivo [1]; Fat uptake) was 0.06 ± 0.03 %ID/g, the tissue uptake at 1 h (in vivo [1]; Heart uptake) was 4.41 ± 0.22 %ID/g and the tissue uptake at 4 h (in vivo [1]; Heart uptake) was 2.99 ± 0.36 %ID/g. For the same compound, the tissue uptake at 24 h (in vivo [1]; Heart uptake) was 0.36 ± 0.04 %ID/g, the tissue uptake at 72 h (in vivo [1]; Heart uptake) was 0.16 ± 0.01 %ID/g and the tissue uptake at 120 h (in vivo [1]; Heart uptake) was 0.1 ± 0.02 %ID/g. It also gave a tissue uptake at 1 h (in vivo [1]; Intestine uptake) of 1.26 ± 0.2 %ID/g, a tissue uptake at 4 h (in vivo [1]; Intestine uptake) of 1.03 ± 0.1 %ID/g and a tissue uptake at 24 h (in vivo [1]; Intestine uptake) of 0.49 ± 0.41 %ID/g. It also gave a tissue uptake at 72 h (in vivo [1]; Intestine uptake) of 0.15 ± 0.09 %ID/g, a tissue uptake at 120 h (in vivo [1]; Intestine uptake) of 0.05 ± 0.02 %ID/g and a tissue uptake at 1 h (in vivo [1]; Kidneys uptake) of 14.5 ± 3.33 %ID/g. For the same compound, the tissue uptake at 4 h (in vivo [1]; Kidneys uptake) was 12.4 ± 1.36 %ID/g, the tissue uptake at 24 h (in vivo [1]; Kidneys uptake) was 5.06 ± 0.91 %ID/g and the tissue uptake at 72 h (in vivo [1]; Kidneys uptake) was 2.28 ± 0.24 %ID/g. For the same compound, the tissue uptake at 120 h (in vivo [1]; Kidneys uptake) was 1.69 ± 0.58 %ID/g, the tissue uptake at 1 h (in vivo [1]; Lacrimal uptake) was 0.5 ± 0.05 %ID/g and the tissue uptake at 4 h (in vivo [1]; Lacrimal uptake) was 0.32 ± 0.13 %ID/g. It also gave a tissue uptake at 24 h (in vivo [1]; Lacrimal uptake) of 0.05 ± 0.01 %ID/g, a tissue uptake at 72 h (in vivo [1]; Lacrimal uptake) of 0.01 ± 0.01 %ID/g and a tissue uptake at 120 h (in vivo [1]; Lacrimal uptake) of 0.01 ± 0.01 %ID/g. It also gave a tissue uptake at 1 h (in vivo [1]; Liver uptake) of 3.95 ± 0.83 %ID/g, a tissue uptake at 4 h (in vivo [1]; Liver uptake) of 2.16 ± 0.17 %ID/g and a tissue uptake at 24 h (in vivo [1]; Liver uptake) of 0.45 ± 0.04 %ID/g. It also gave a tissue uptake at 72 h (in vivo [1]; Liver uptake) of 0.26 ± 0.01 %ID/g, a tissue uptake at 120 h (in vivo [1]; Liver uptake) of 0.22 ± 0.08 %ID/g and a tissue uptake at 1 h (in vivo [1]; Lungs uptake) of 9.01 ± 0.91 %ID/g. For the same compound, the tissue uptake at 4 h (in vivo [1]; Lungs uptake) was 6.35 ± 0.78 %ID/g, the tissue uptake at 24 h (in vivo [1]; Lungs uptake) was 1.09 ± 0.33 %ID/g and the tissue uptake at 72 h (in vivo [1]; Lungs uptake) was 0.29 ± 0.05 %ID/g. The tissue uptake at 120 h (in vivo [1]; Lungs uptake) was 0.15 ± 0.05 %ID/g, the tissue uptake at 1 h (in vivo [1]; Muscle uptake) was 1.42 ± 0.11 %ID/g and the tissue uptake at 4 h (in vivo [1]; Muscle uptake) was 1 ± 0.1 %ID/g. For the same compound, the tissue uptake at 24 h (in vivo [1]; Muscle uptake) was 0.11 ± 0.01 %ID/g, the tissue uptake at 72 h (in vivo [1]; Muscle uptake) was 0.04 ± 0.01 %ID/g and the tissue uptake at 120 h (in vivo [1]; Muscle uptake) was 0.05 ± 0.05 %ID/g. It also gave a tissue uptake at 1 h (in vivo [1]; Pancreas uptake) of 1.7 ± 0.17 %ID/g, a tissue uptake at 4 h (in vivo [1]; Pancreas uptake) of 1.21 ± 0.14 %ID/g and a tissue uptake at 24 h (in vivo [1]; Pancreas uptake) of 0.17 ± 0.03 %ID/g. The tissue uptake at 72 h (in vivo [1]; Pancreas uptake) was 0.07 ± 0.01 %ID/g, the tissue uptake at 120 h (in vivo [1]; Pancreas uptake) was 0.04 ± 0.01 %ID/g and the tissue uptake at 1 h (in vivo [1]; Salivary uptake) was 2.7 ± 0.29 %ID/g. The tissue uptake at 4 h (in vivo [1]; Salivary uptake) was 2.01 ± 0.17 %ID/g, the tissue uptake at 24 h (in vivo [1]; Salivary uptake) was 0.42 ± 0.07 %ID/g and the tissue uptake at 72 h (in vivo [1]; Salivary uptake) was 0.2 ± 0.03 %ID/g. It also gave a tissue uptake at 120 h (in vivo [1]; Salivary uptake) of 0.14 ± 0.02 %ID/g, a tissue uptake at 1 h (in vivo [1]; Seminal uptake) of 1.14 ± 0.17 %ID/g and a tissue uptake at 4 h (in vivo [1]; Seminal uptake) of 0.92 ± 0.2 %ID/g. The tissue uptake at 24 h (in vivo [1]; Seminal uptake) was 0.11 ± 0.03 %ID/g, the tissue uptake at 72 h (in vivo [1]; Seminal uptake) was 0.06 ± 0.01 %ID/g and the tissue uptake at 120 h (in vivo [1]; Seminal uptake) was 0.04 ± 0.01 %ID/g. For the same compound, the tissue uptake at 1 h (in vivo [1]; Spleen uptake) was 2.54 ± 0.6 %ID/g, the tissue uptake at 4 h (in vivo [1]; Spleen uptake) was 2.1 ± 0.39 %ID/g and the tissue uptake at 24 h (in vivo [1]; Spleen uptake) was 0.6 ± 0.05 %ID/g. For the same compound, the tissue uptake at 72 h (in vivo [1]; Spleen uptake) was 0.62 ± 0.14 %ID/g, the tissue uptake at 120 h (in vivo [1]; Spleen uptake) was 0.92 ± 0.3 %ID/g and the tissue uptake at 1 h (in vivo [1]; Stomach uptake) was 0.74 ± 0.14 %ID/g. The tissue uptake at 4 h (in vivo [1]; Stomach uptake) was 0.81 ± 0.04 %ID/g, the tissue uptake at 24 h (in vivo [1]; Stomach uptake) was 0.89 ± 0.84 %ID/g and the tissue uptake at 72 h (in vivo [1]; Stomach uptake) was 0.23 ± 0.16 %ID/g. For the same compound, the tissue uptake at 120 h (in vivo [1]; Stomach uptake) was 0.03 ± 0.01 %ID/g, the tissue uptake at 1 h (in vivo [1]; Tail uptake) was 3.57 ± 0.35 %ID/g and the tissue uptake at 4 h (in vivo [1]; Tail uptake) was 2.72 ± 0.61 %ID/g. It also gave a tissue uptake at 24 h (in vivo [1]; Tail uptake) of 0.4 ± 0.17 %ID/g, a tissue uptake at 72 h (in vivo [1]; Tail uptake) of 0.15 ± 0.03 %ID/g and a tissue uptake at 120 h (in vivo [1]; Tail uptake) of 0.19 ± 0.13 %ID/g. The tissue uptake at 1 h (in vivo [1]; Testes uptake) was 2.25 ± 0.3 %ID/g, the tissue uptake at 4 h (in vivo [1]; Testes uptake) was 2.68 ± 0.16 %ID/g and the tissue uptake at 24 h (in vivo [1]; Testes uptake) was 0.73 ± 0.32 %ID/g. It also gave a tissue uptake at 72 h (in vivo [1]; Testes uptake) of 0.34 ± 0.03 %ID/g, a tissue uptake at 120 h (in vivo [1]; Testes uptake) of 0.26 ± 0.04 %ID/g and a tissue uptake at 1 h (in vivo [1]; Thyroid uptake) of 3.79 ± 0.23 %ID/g. For the same compound, the tissue uptake at 4 h (in vivo [1]; Thyroid uptake) was 2.69 ± 0.26 %ID/g, the tissue uptake at 24 h (in vivo [1]; Thyroid uptake) was 0.55 ± 0.07 %ID/g and the tissue uptake at 72 h (in vivo [1]; Thyroid uptake) was 0.31 ± 0.04 %ID/g. For the same compound, the tissue uptake at 120 h (in vivo [1]; Thyroid uptake) was 0.19 ± 0.01 %ID/g, the tissue uptake at 1 h (in vivo [1]; Tumor uptake) was 15.6 ± 2.98 %ID/g and the tissue uptake at 4 h (in vivo [1]; Tumor uptake) was 46.5 ± 28.4 %ID/g. It also gave a tissue uptake at 24 h (in vivo [1]; Tumor uptake) of 54.3 ± 10.6 %ID/g, a tissue uptake at 72 h (in vivo [1]; Tumor uptake) of 66.3 ± 18.7 %ID/g and a tissue uptake at 120 h (in vivo [1]; Tumor uptake) of 74 ± 35.5 %ID/g.
In the case of `O=C(O)CC[C@H](NC(=O)N[C@@H](CCCCNC(=O)[C@H](Cc1c2ccccc2cc2ccccc12)NC(=O)C1CCC(CNC(=O)CN2CCN(CC(=O)O)CCN(CC(=O)O)CCN(CC(=O)O)CC2)CC1)C(=O)O)C(=O)O` (some centres unmarked) [HTK03041], the tissue uptake at 1 h (in vivo [2]) is reported as 170 %ID/g.
In the case of `O=C(O)CCC[C@H](NC(=O)N[C@@H](CCCCNC(=O)[C@H](Cc1c2ccccc2cc2ccccc12)NC(=O)[C@H]1CC[C@H](CNC(=O)CN2CCN(CC(=O)O)CCN(CC(=O)O)CCN(CC(=O)O)CC2)CC1)C(=O)O)C(=O)O` [HTK03149], the “uptake in kidney and salivary gland compared to HTK03041” value [3] is reported as “significantly decreases the uptake”.
